Experiments:
Type in all cases: cell-based, Saccharomyces cerevisiae
[1] = test system: SH3-deleted bait proteins (1xFLAG); test: Western blot expression level of SH3-deleted baits (Fig. S1F-G); settings: Western blot Flag signal, 1xFLAG-tagged WT or SH3-deleted bait; sheet FigS1F-G
Protocol: Precultures of yeast cells expressing baits fused with the DHFR F[1,2]-FLAG were grown overnight at 30 °C with agitation in synthetic complete medium. The next day, cells were expanded in synthetic complete medium to reach their exponential phase (OD600 of around 1.0), pelleted, and frozen at −80 °C. The equivalent of fifty OD600 of cells was resuspended in ice-cold yeast lysis buffer (10 mM Tris-HCl pH 7.4, 150 mM NaCl, 0.5 mM EDTA (Millipore Sigma), 1% Triton X-100 (Millipore Sigma), and one cOmplete Mini Protease Inhibitor Cocktail (Millipore Sigma) per 10 mL) with […] glass beads (Millipore Sigma) and disrupted at 4 °C by 10 cycles of 2 min vortexing and 2 min cooldown. The equivalent of […] of lysed cells was used for the immunoprecipitation of the bait proteins using FLAG-M2 agarose beads (Millipore Sigma). The beads were incubated with the cell lysates for 120 min at 4 °C with a slow rotation, followed by three washes with the yeast lysis buffer.
Protein extracts and affinity-purified baits from yeast and human lysed cells were migrated on 10% polyacrylamide gels. The separated proteins were then transferred to nitrocellulose membranes. Validation of correct protein loading was done with ponceau staining of the membranes. Before the primary antibody incubations, membranes were blocked in 5% milk. Protein signals were detected on an Amersham Imager 600RGB (GE Healthcare) following the incubation of the membranes with the appropriate HRP-conjugated secondary antibodies and the Clarity Western ECL Substrate (Bio-Rad). The antibodies used in this study are M2-HRP (A8592, Sigma, 1/50,000), rabbit anti-FLAG (F7425, Sigma, 1/1000), PAK (SC-881, Santa Cruz, 1/200), p130cas/BCAR1 (SC-860, Santa Cruz, 1/200), actin (Cell Signaling Technology, 1/2000), anti-mouse HRP (Cell Signaling Technology, 1/10,000) and anti-rabbit HRP (Cell Signaling Technology, 1/10,000). The quantification of the WB signals was performed with the Amersham Imager 600 analysis software (GE Healthcare).

ABP1 = test: DHFR-PCA on solid medium, bait ABP1 (Fig. 1B); settings: bait ABP1, label = prey; for medrep (log2 median colony size normalized to plate background, PCA score): 2-4 replicates; for Ratio (SH3-deleted/WT medrep): only significant differences showed, PPIs completely lost have a ratio of 0.1 and the gained PPIs 2.5
Description: (§1) Supplement 41467_2021_21873_MOESM8_ESM.xlsx, sheet "Fig1B" | column: medsize; medrep; Ratio; Score

BBC1 = test: DHFR-PCA on solid medium, bait BBC1 (Fig. 1B); settings: bait BBC1, label = prey; for medrep (log2 median colony size normalized to plate background, PCA score): 2-4 replicates
Description: as §1

BEM1-1 = test: DHFR-PCA on solid medium, bait BEM1-1 (Fig. 1B); settings: bait BEM1-1, label = prey; 2-8 replicates
Description: as §1

BEM1-2 = test: DHFR-PCA on solid medium, bait BEM1-2 (Fig. 1B); settings: bait BEM1-2, label = prey; 2-8 replicates
Description: as §1

BOI1 = test: DHFR-PCA on solid medium, bait BOI1 (Fig. 1B); settings: bait BOI1, label = prey; 3-8 replicates
Description: as §1

BOI2 = test: DHFR-PCA on solid medium, bait BOI2 (Fig. 1B); settings: bait BOI2, label = prey; 3-8 replicates
Description: as §1

BUD14 = test: DHFR-PCA on solid medium, bait BUD14 (Fig. 1B); settings: bait BUD14, label = prey; 4 replicates
Description: as §1

[2] = test system: 575 putative partners (preys) of 22 WT SH3-containing proteins; test: DHFR-PCA on solid medium, WT and SH3-deleted baits (Fig. 1B); parameters: key to Score: 0: SH3-independent; 1: SH3-dependent PPIs; 2: SH3-inhibited PPIs
Method in brief: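 In S. cerevisiae, 22 SH3-containing baits fused genomically to DHFR F[1,2], either WT or with each SH3 replaced via CRISPR by a poly-Gly/Ser linker, screened against 575 DHFR F[3] preys plus 40 negative controls in 1536 arrays, preys duplicated at randomized positions.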

B1: Sho1 WT (protein, UniProt P40073 1-367, looked up)
High osmolarity signaling …: MSISSKIRPTPRKPSRMATDHSFKMKKFYADPFAISSISLAIVSWVIAIGGSISSASTNESFPRFTWWGIVYQFLIICSLMLFYCFDLVDHYRIFITTSIAVAFVYNTNSATNLVYADGPKKAAASAGVILLSIINLIWILYYGGDNASPTNRWIDSFSIKGIRPSPLENSLHRARRRGNRNTTPYQNNVYNDAIRDSGYATQFDGYPQQQPSHTNYVSSTALAGFENTQPNTSEAVNLHLNTLQQRINSASNAKETNDNSNNQTNTNIGNTFDTDFSNGNTETTMGDTLGLYSDIGDDNFIYKAKALYPYDADDDDAYEISFEQNEILQVSDIEGRWWKARRANGETGIIPSNYVQLIDGPEEMHR
Flag [1]: 42239

B2: Myo5 WT (protein, UniProt Q04439 1-1219, looked up)
Myosin-5: MAILKRGARKKVHQEPAKRSANIKKATFDSSKKKEVGVSDLTLLSKISDEAINENLKKRFLNATIYTYIGHVLISVNPFRDLGIYTDAVMNEYKGKNRLEVPPHVFAIAESMYYNMKSYNENQCVIISGESGAGKTEAAKRIMQYIAAASSTHTESIGKIKDMVLATNPLLESFGCAKTLRNNNSSRHGKYLEIKFNNQFEPCAGNITNYLLEKQRVVSQIKNERNFHIFYQFTKGASDAYRQTFGVQKPEQYVYTAAAGCISAETIDDLQDYQETLKAMRVIGLGQEEQDQIFRMLAAILWIGNVSFIENEEGNAQVRDTSVTDFVAYLLQIDSQLLIKSLVERIMETNHGMKRGSVYHVPLNIVQADAVRDALAKAIYNNLFDWIVSRVNKSLQAFPGAEKSIGILDIYGFEIFEHNSFEQICINYVNEKLQQIFIQLTLKSEQETYEREKIQWTPIKYFDNKVVCDLIEARRPPGIFAAMNDSVATAHADSNAADQAFAQRLNLFTTNPHFDLRSNKFVIKHYAGDVTYDIDGITDKNKDQLQKDLVELIGTTTNTFLATIFPDTVDRESKRRPPTAGDKIIKSANDLVETLSKAQPSYIRTIKPNETKSPNDYDDRQVLHQIKYLGLQENVRIRRAGFAYRQVFEKFVERFYLLSPHCSYAGDYTWQGDTLDAVKYILQDSSIPQQEYQLGVTSVFIKTPETLFALEHMRDRYWHNMAARIQRAWRRFLQRRIDAATKIQRTIRERKEGNKYEKLRDYGTKVLGGRKERRSMSLLGYRAFMGDYLSCNESKSKGAYIKRQVSIKEKVIFSIHGEALHTKFGRSAQRLKKTFLLTPTTLYIVGQTLVQNAMTYTQDYKIDVRNIQAVSLTNLQDDWVAIKLASSGQPDPLINTYFKTELITHLKRLNDKIQIKIGSAIEYQKKPGKLHSVKCQINESAPKYGDIYKSSTISVRRGNPPNSQVHKKPRKKSSISSGYHASSSQATRRPVSIAAAQHVPTAPASRHSKKPAPPPPGMQNKAATRRSVPNPASTLTASQSNARPSPPTAATRATPAATPAAAAMGSGRQANIPPPPPPPPPSSKPKEPMFEAAYDFPGSGSPSELPLKKGDVIYITREEPSGWSLGKLLDGSKEGWVPTAYMKPHSGNNNIPTPPQNRDVPKPVLNSVQHDNTSANVIPAAAQASLGDGLANALAARANKMRLESDDEEANEDEEEDDW
Flag [1]: 93590

B3: Pin3 WT (protein, UniProt Q06449 2-215, looked up)
[PSI+] inducibility protein 3: SASLINRSLTNIRTELDFLKGSNVISNDVYDQINKSLPAKWDPANAPRNASPASLEYVEALYQFDPQQDGDLGLKPGDKVQLLEKLSPEWYKGSCNGRTGIFPANYVKPAFSGSNGPSNLPPPPQYKAQELQQIPTQNSAASSYQQQPFPPPSTNYYQQPQQQPQQAPPPQQQQQQQQHQSSHSHLKSFGSKLGNAAIFGAGASIGSDIVNNIF
Flag [1]: 304553

B4: Boi2 WT (protein, UniProt P39969 1-1040, looked up)
BEM1-interacting protein 2: MSNDREVPTLSQLNTTVSRDKDVSDTLSPDFDSKGSATGRDGGNFPMYIAINEYFKRMEDELDMKPGDKIKVITDDEEYKDGWYFGRNLRTNEEGLYPVVFTQKITVEKAPTLMRAKSTKRIYSPLTNEDPLLSSTFISENDSNSELPTPQPIETAASISRTANGKIERNLSLKNTMSDIDNALLEFKDDSIGPPDRFINSGRDEEHSITHETILSATDGLDVVESNSKPTTSSSTGFLNGDLENQATLINGIDTTKLNPVEAEFWSPEEITAYFIMEGYDVQSASRFQKHKISGKILLELELVHLKELDINSFGTRFEIFKEIEKIKEAIRTNGRSLNRASKTNNANIYNQLMPPANVDQRASYRGHVRKTSQSLEDLPSQQNFIPTPRNTRNSSASKHRPKSLVFDSQEANANIAPDVQIPQVVEEMAGNENLFVSPRRAPKPPSYPSPAQPPKSPLLNNTRTSPSPAQLYSWQSPTLSFSGPKRTSYIDQYSSSDSNFNSRSALPKNNQGGGKALSPIPSPTRNSVRNEDSEGKLTSSSKRNSVPYYGYAPESSSDRKSSCSSHEEEQFQETMNTFERPTSSIYADGSTIASISNDKLAHEKEGKKKPTRHSSSLSSKSKSDSRRNSSLKRSSSASRTSSFKKSSFMLSPFRQQFTDNAARSSSPEENPITSMPSEKNSSPIVDKKSSKKSRSKRRSVSAKEAEIFTETVKDDKNKRSASEAIKGETLKGKSLRQMTARPVAKKKQTSAFIEGLRSISVKEAMKDADFSGWMSKKGSGAMSTWKTRFFTLHGTRLSYFSSTTDTRERGLIDITAHRVVPAKEDDKLVSLYAASTGKGRYCFKLLPPQPGSKKGLTFTQPRTHYFAVDNKEEMRGWMAALIKTTIDIDTSVPIISSYTTPTVSLSKAQEMLAEAREETKLREQQMLENEEDEDQFLWDQQQLQQQQHDNNQGQADRTISASTQRTSDEDNTISTPNLSSANNTTIGSNGFSSPFLLASGLLSPGVARNSSMRGTEKKGKFSTEEDYFGDNSKHKTDKI
Flag [1]: 12024

B5: YLR332W (protein, UniProt P36027 26-376, looked up)
Cell wall integrity sensor …: QFFVQSSSSNSSAVSTARSSVSRVSSSSSILSSSMVSSSSADSSSLTSSTSSRSLVSHTSSSTSIASISFTSFSFSSDSSTSSSSSASSDSSSSSSFSISSTSATSESSTSSTQTSTSSSSSLSSTPSSSSSPSTITSAPSTSSTPSTTAYNQGSTITSIINGKTILSNHYTTVTYTPSATADSSNKSKSSGLSKKNRNIVIGCVVGIGVPLILVILALIYMFCIQSSRTDFIDSDGKVVTAYRANKFTKWWYMLLGKKVSDEYHSDSPLGGSASSAGGLDLDEADDVMEQSSLFDVRIRDSDSVLPNANTADHNNTNSGGEPINSSVASNDIIEEKFYDEQGNELSPRNY
medrep (log2 median colony size normalized to plate background, PCA score) (ABP1): 3.345
Ratio (SH3-deleted/WT medrep) (ABP1): 1.326
medrep (log2 median colony size normalized to plate background, PCA score) (BBC1): 4.7031
medrep (log2 median colony size normalized to plate background, PCA score) (BEM1-1): 4.445
medrep (log2 median colony size normalized to plate background, PCA score) (BEM1-2): 4.445
medrep (log2 median colony size normalized to plate background, PCA score) (BOI1): 3.534
medrep (log2 median colony size normalized to plate background, PCA score) (BOI2): 4.169
medrep (log2 median colony size normalized to plate background, PCA score) (BUD14): 1.439

B6: Nbp2 WT (protein, UniProt Q12163 1-236, looked up)
NAP1-binding protein 2: MATMETTTQKDTNILKSGLKKTIGVLNEAVLQNGREVEAVQAGNSDTMEDTETTTIGYISIKDYAYADSNPLHYGYFDGDNEEDEMVSDSSNGEDTYNKRQSITLPDDYIVNQRAVALYDFEPENDNELRLAEGDIVFISYKHGQGWLVAENESGSKTGLVPEEFVSYIQPEDGENEVENKARPFYLTHLITQSVSPKNNIDNTNEDEYDDNDEWEDIDDVAEVEADMKTKLDISD
Flag [1]: 158710

B7: YKL117W (protein, UniProt P28707 2-216, looked up)
Co-chaperone protein SBA1: SDKVINPQVAWAQRSSTTDPERNYVLITVSIADCDAPELTIKPSYIELKAQSKPHVGDENVHHYQLHIDLYKEIIPEKTMHKVANGQHYFLKLYKKDLESEYWPRLTKEKVKYPYIKTDFDKWVDEDEQDEVEAEGNDAAQGMDFSQMMGGAGGAGGAGGMDFSQMMGGAGGAGSPDMAQLQQLLAQSGGNLDMGDFKENDEEDEEEEIEPEVKA
medrep (log2 median colony size normalized to plate background, PCA score) ([2]; bait SLA1-3, DHFR-PCA, label = prey, Replicates 4 (2 for YCR009C, YDR388W, YIL033C)): 4.6716
Score ([2]; bait SLA1-3, label = prey): 0
medrep (log2 median colony size normalized to plate background, PCA score) (ABP1): 3.786
Ratio (SH3-deleted/WT medrep) (ABP1): 1.319
medrep (log2 median colony size normalized to plate background, PCA score) (BBC1): 1.6151
Ratio (SH3-deleted/WT medrep) (BBC1; only significant differences showed, PPIs completely lost have a ratio of 0.1 and the gained PPIs 2.5): 0.1
medrep (log2 median colony size normalized to plate background, PCA score) (BUD14): 3.847

Reference: paper PMC7954794, “Protein context shapes the specificity of SH3 domain-mediated interactions in vivo” (Nature Communications, 2021)
